Results as given in paper PMC12635182.

Target: aSyn-VC (alpha-synuclein fused in front of the C-terminal fragment of Venus) (UniProt P37840)

cells with fewer VN-Sph1 + aSyn-VC inclusions than with WT Sph1 (HEK 293, counted by microscopy): 40%
Substance: VN-Sph1 K527A (from UniProt Q9Y6H5 1-919) (natural protein)
